From the supplement of paper PMC7877785
± gives the uncertainty stated by the source.

Assay: self-splicing fitness, log relative to wild type (ln ratio); higher = more splicing; Tetrahymena group I intron in knt gene, E. coli kanamycin selection, DiMSum; sequences stand for … in CUCUCU…GGAGGGAAAAGUUAUCAGGCAUGCACCUGGUAGCUAGUCUUUAAACCAAUAGAUUGCAUCGGUUUAAAAGGCAAGACCGUCAAAUUGCGGGAAAGGGGUCAACAGCCGUUCAGUACCAAGUCUCAGGGGAAACUUUGAGAUGGCCUUGCAAAGGGUAUGGUAAUAAGCUGACGGACAUGGUCCUAACCACGCAGCCAAGUCCUAAGUCAACAGAUCUUCUGUUGAUAUGGAUGCAGUUCACAGACUAAAUGUCGGUCGGGGAAGAUGUAUUCUUCUCAUAAGAUAUAGUCGGACCUCUCCUUAAUGGGAGCUAGCGGAUGAAGUGAUGCAACACUGGAGCCGCUGGGAACUAAUUUGUAUGCGAAAGUAUAUUGAUUAGUUUUGGAGUACUCGUGGUCG
Outline: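 Library with all eight P1ex-region intron nucleotides randomised, intron inside the knt kanamycin-resistance gene on pET-22b(+), in E. coli BL21(DE3). Cells grew overnight at 37°C or 30°C on LB agar with or without 25 μg/mL kanamycin (plus 100 μg/mL carbenicillin, 50 μM IPTG, 0.2% rhamnose), in six replicate transformations. Pooled colonies were amplicon-sequenced on Illumina HiSeq 2500. DiMSum fitness is the error-weighted combination of wild-type-normalised replicate fold changes, kanamycin versus none.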

Row | Sequence | self-splicing fitness (ln) (30 °C) | self-splicing fitness (ln) (37 °C)
1 | CUAUAGCAAUAUUACGUUAA | -4.29 ± 0.47 | -3.36 ± 0.42
2 | AAUAAGCAAUAUUACGUGCC |  | 0.782 ± 0.26
3 | UGACAGCAAUAUUACGUAAG | -1.2 ± 0.064 | -0.489 ± 0.067
4 | UACCAGCAAUAUUACGGCAU | -1.37 ± 0.089 | -0.029 ± 0.11
5 | CUAUAGCAAUAUUACGUACA | -2.36 ± 0.17 | -2.05 ± 0.2
6 | AGCCAGCAAUAUUACGCGAU | -1.24 ± 0.14 | -2.93 ± 0.32
7 | AAAAAGCAAUAUUACGGGAG | -2.11 ± 0.11 | -1.04 ± 0.12
8 | UUUAAGCAAUAUUACGUUGU | -3.69 ± 0.25 | -2.2 ± 0.26
9 | CGGCAGCAAUAUUACGUUAC | -3.4 ± 0.2 | -3.3 ± 0.33
10 | UCCAAGCAAUAUUACGCCUU | -4.12 ± 0.22 | -2.98 ± 0.21
11 | GGCAAGCAAUAUUACGACAC | -0.649 ± 0.15 | 0.129 ± 0.28
12 | ACUGAGCAAUAUUACGUGAA | -2.94 ± 0.17 | -2.09 ± 0.17
13 | GUACAGCAAUAUUACGCGGG | -1.5 ± 0.092 | -2.71 ± 0.15
14 | CUGCAGCAAUAUUACGAUGA | -3.75 ± 0.22 | -2.45 ± 0.23
15 | UGUCAGCAAUAUUACGAGUG | -1.07 ± 0.085 | -0.261 ± 0.094
16 | GAACAGCAAUAUUACGAACC | -1.6 ± 0.12 | -0.809 ± 0.13
17 | GCAAAGCAAUAUUACGAUUG | -3.55 ± 0.21 | -1.28 ± 0.15
18 | CGGCAGCAAUAUUACGCACA | -0.39 ± 0.1 | -0.122 ± 0.14
19 | AACUAGCAAUAUUACGGCGA | -0.842 ± 0.1 | -0.155 ± 0.13
20 | GUGCAGCAAUAUUACGCCUG | -2.95 ± 0.2 | -2.49 ± 0.26
21 | CGAUAGCAAUAUUACGUAAG | -0.163 ± 0.066 | 0.259 ± 0.082
22 | CUCAAGCAAUAUUACGAACG | -1.54 ± 0.089 | -0.932 ± 0.12
23 | CUUAAGCAAUAUUACGGCGU | -3.35 ± 0.2 | -1.89 ± 0.17
24 | GGUAAGCAAUAUUACGAAAU | -1.94 ± 0.34 | -0.431 ± 0.32
